This is an account of results in US20230272097A1 (PETMEDIX, published 2023).

The Kd is the constant that tells how readily two partners part at equilibrium.

Sequences and labels used below:
B1: PMX013 (antibody, V domains shown)
VH: ELTLQESGPGLVKPSQTLSLTCVVSGGSVTSSHYWNWIRQRPGRGLEWMGSWTGGTNYNPAFQGRISVTSDTAKNQFSLQLSSLTTEDTAVYYCARGGGYSGTWKDYYVMDYWGHGTSVIVSS
VL: SYVLTQLPSKNVTLNQPAHITCGGDNLGSKSVHWYQQKLGQAPVLIIYFDTSRPTGIPERFSGANSGNTATLTISGALAEDEADYYCQVWDSSAKASVFGGGTHLTVL
notes: Canine variable regions
B2: PMX017 (antibody, V domains shown)
V domain 1: EVQLVESGGDLVKPGGSLRLSCVASGFTFSSYHMSWVRQAPGKGLQWVAYIASGGTVTTYADAVRGRFTISRDNAKNMLYLQMNSLRAEDSAVYYCTRWKGGTFGYGMDYWGHGTSLFVSS
V domain 2: B1 VL with N15K, L27I, F49Y, T51N, S52N, T55A
notes: Canine variable regions
B3: PMX016 (antibody, V domains shown)
VH: EVQLVESGGDLVKPGGSLRLSCVASGFTFSNYHMNWVRQAPGKGLQWVAYITSDGIVSSYADVVKGRFTISRDNAKNTLFLQMNSLRAEDTAVYYCASGLFLVVGGGTFWGQGTLVTVSS
VL: B1 VL with N15K, L27I, F49S, T51S
notes: Canine variable regions
B4: PMX018 (antibody, V domains shown)
VH: B3 VH with S53N, V63A, F80Y, A88V
VL: B1 VL with N15K, L27I, Q37H, F49Y, T51S
notes: Canine variable regions
B5: PMX019 (antibody, V domains shown)
VH: EVQLVESGGDLVKPGGSLRLSCVASGFTFSSNYMSWIRQAPGKGLQWVSQISGDGIYTNYADAMKGRFTISRDNAKNTLYLQMNSLRDEDTALYYCATGIYPNAFGYWGQGTLVTVSS
VL: SYVLTQLSSKNVTLKQPAHITCGGDNIGSKSVHWYQQKLGQAPVLIIYYDSSRPTGIPERFSGANSGNTATLTISGALAEDEADYYCQVWDSSANVFGGGTHLTVL
notes: Canine variable regions; also called PMX19
B6: PMX020 (antibody, V domains shown)
VH: EVQLVESGGDLVKPGGSLRISCVASGFTFSSYHMNWVRQAPGKGLQWVAHISSGGTFTSYADAVKGRFTISRDNAKNTLYLQMISLRAEDTAVYYCASGLFLVVGGGNYWGRGTLVTVSS
VL: B5 VL with S8P, Y49S, N95S
notes: Canine variable regions
B7: PMX 015 (antibody, V domains shown)
V domain 1: EVQLVESGGDLVKPGGSLRISCVASGFTFSYYHMSWVRQAPGKGLQWVAYINSGGFSTNYADAVKGRCSISRDNGKNTLYLQMNSLRPEDTGVYYCASESRWGDSYSGMTYWGHGTSLFVSS
V domain 2: B1 VL with N15K, L27I, F49Y, T51N, N65K
notes: anti-canine OX40L candidate
B8: PMX 024 (antibody, V domains shown)
VH: B5 VH with Q3L, V5M, S35Y, I56S, Y57F, M64V, L93V, Y94F, T98S
VL: B5 VL with L7P, S8P, W90R
notes: anti-canine OX40L candidate
B9: PMX014 formulated in canine IgGB Def2 backbone (antibody)
heavy: EVQLVESGGDLVKPGGSLRLSCVASGFTFSNFHMSWVRQAPGKGLQWVAYINSGGFNINYEDAVRGRFTISRDNAKNTLYLQMNSLRAEDTAIYYCARDWDTHLDTNWFYYWGQGTLVTVSSASTTAPSVFPLAPSCGSTSGSTVALACLVSGYFPEPVTVSWNSGSLTSGVHTFPSVLQSSGLYSLSSMVTVPSSRWPSETFTCNVAHPASKTKVDKPVPKRENGRVPRPPDCPKCPAPESLGGPSVFIFPPKPKDTLLIARTPEVTCVVVDLGREDPEVQISWFVDGKQMQTAKTQPREEQFNGTYRVVSVLPIGHQDWLKGKQFTCKVNHIGLPSPIERTISKARGQAHQPSVYVLPPSREELSKNTVSLTCLIKDFFPPDIDVEWQSNGQQEPESKYRTTPPQLDEDGSYFLYSKLSVDKSRWQRGDTFICAVMHEALHNHYTQKSLSHSPGK
light: B1 VL with N15K, P17S, G23R, L27I, F49Y, T51S, S92I
notes: also called PMX014 Def2; not shown: light chain constant region (human kappa, or canine kappa or lambda)
B10: PMX014 formulated in canine IgGB Def7 backbone (antibody)
heavy: B9 heavy with S242A, L243A, G275D, R276P, H333N, I334K, G335A, P337G
light: B1 VL with N15K, P17S, G23R, L27I, F49Y, T51S, S92I
notes: also called PMX014 Def7; not shown: light chain constant region (human kappa, or canine kappa or lambda)
B11: PMX020 formulated in canine IgGB Def2 backbone (antibody)
heavy: EVQLVESGGDLVKPGGSLRISCVASGFTFSSYHMNWVRQAPGKGLQWVAHISSGGTFTSYADAVKGRFTISRDNAKNTLYLQMISLRAEDTAVYYCASGLFLVVGGGNYWGRGTLVTVSSASTTAPSVFPLAPSCGSTSGSTVALACLVSGYFPEPVTVSWNSGSLTSGVHTFPSVLQSSGLYSLSSMVTVPSSRWPSETFTCNVAHPASKTKVDKPVPKRENGRVPRPPDCPKCPAPESLGGPSVFIFPPKPKDTLLIARTPEVTCVVVDLGREDPEVQISWFVDGKQMQTAKTQPREEQFNGTYRVVSVLPIGHQDWLKGKQFTCKVNHIGLPSPIERTISKARGQAHQPSVYVLPPSREELSKNTVSLTCLIKDFFPPDIDVEWQSNGQQEPESKYRTTPPQLDEDGSYFLYSKLSVDKSRWQRGDTFICAVMHEALHNHYTQKSLSHSPGK
light: B5 VL with S8P, Y49S, N95S
notes: also called PMX020 Def2; not shown: light chain constant region (human kappa, or canine kappa or lambda)
B12: PMX020 formulated in canine IgGB Def7 backbone (antibody)
heavy: B11 heavy with S240A, L241A, G273D, R274P, H331N, I332K, G333A, P335G
light: B5 VL with S8P, Y49S, N95S
notes: also called PMX020 Def7; not shown: light chain constant region (human kappa, or canine kappa or lambda)

Residue numbers refer to the chain shown, from its start.

For the first experiment, the target named is T1, canine OX40L, full length membrane form, expressed on the cell surface (HEK293 or MEF cells stably … (canine (dog, beagle))).
T1 construct: The same protein is used on HEK293 and on MEF cells; also called HEK-OX40L; OX40L expressing HEK293 cells
T1 chain: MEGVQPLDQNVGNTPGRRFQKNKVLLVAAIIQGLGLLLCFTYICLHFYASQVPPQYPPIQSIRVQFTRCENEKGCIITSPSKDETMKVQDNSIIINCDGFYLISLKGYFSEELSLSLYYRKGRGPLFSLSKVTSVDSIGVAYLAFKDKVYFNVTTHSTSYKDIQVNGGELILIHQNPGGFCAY
Briefly: flow cytometry titration on HEK cells expressing OX40L; Kd (EC50) from GeoMean vs concentration, Prism four parameter fit. The procedure:
FIG. 10. Affinity determination for antibodies that bind OX40L on HEK cells expressing OX40L. Graphs are generated by plotting GeoMean arbitrary units (AU) against Log₁₀ [concentration]. Kd (EC₅₀) was calculated using Prism.
(§1) Specific binding to cells expressing OX40L is confirmed by purifying mAb from the CHO supernatant using protein A resin (MabSelect, Cytiva). In brief, MabSelect resin is washed in PBS and diluted to have a 10% slurry. An appropriate volume of the 10% slurry is added to the supernatant and incubated 5-10′ at RT before being loaded into a filter column. After 3 washes with PBS the antibodies are eluted using IgG elute buffer (Pierce) directly into neutralisation buffer (10 mM TRIS pH8.0), 8:1 IgG elute: neutralisation buffer ratio. Antibody solutions are quantified measuring absorbance at 280 nm, using a Nanodrop One (Thermo Fisher). Serial 1:3 dilutions of purified antibodies ranging from 6.6 μM to 66 pM are prepared in FACS buffer and are used to stain HEK293 or MEF cells (or any other commonly used cell lines) expressing canine OX40L.
(In general: A flow cytometer gives signals particle by particle.)
Consider B1, for which the Kd worked out at 165 nM.
Turning to B2, the dissociation constant (Kd) worked out at 30 nM.
The same measure, in the same setting: then B3, with 37.4 nM; and B4, with 23.6 nM.
Molecule B5 displayed a Kd of 4.49 nM.
In turn, B6 registered a Kd of 2.8 nM.

In a further experiment the target is T1, canine OX40L, full length membrane …. Briefly: flow cytometry, single dose, OX40L expressing HEK293 cells against the parental line, fluorescently labelled secondary antibody. As to the method: CHO cells supernatants containing candidate antibodies are diluted to 1, 5 or 10 μg/ml in FACS buffer (PBS containing 3% FBS) and screened for their ability to bind canine OX40L proteins expressed on cell surface. In brief, HEK293 or MEF cells (or any other commonly used cell lines) expressing canine OX40L at the cell surface are incubated with 100 μl of FACS buffer containing the candidate antibody for 30′ on ice. As a control the parental cell line (HEK293 or MEF cells not expressing OX40L) is also stained with the same antibody solution. After staining, cells are washed with 150 μl FACS buffer followed by centrifugation at 300 g for 3 min. Supernatant is removed, and the cell pellet is resuspended in FACS buffer containing a 1:1000 dilution of a fluorescently labelled secondary antibody recognising the human or canine Fc region of the test antibody for 30 min in the dark, followed by washing with 150 μl FACS buffer and centrifugation at 300 g for 3 mins. Cells are resuspended in FACS buffer and flow cytometry performed using either a […] cytometer, followed by data analysis using FlowJo (FIG. 8).
For the molecule B7, the binding result was “binds”.
For B8, the binding result is reported as “binds”.

The target is the same in a further experiment. Briefly: flow cytometry titration on MEF cells expressing OX40L; Kd (EC50) from GeoMean vs concentration, Prism four parameter fit. As to the method: FIG. 11. Affinity determination for antibodies that bind OX40L on MEF cells expressing OX40L. Graphs are generated by plotting GeoMean arbitrary units (AU) against Log₁₀ [concentration]. Kd (EC₅₀) was calculated using Prism.
as §1
In turn, B1 gave a Kd of 22.7 nM.
Consider B2, for which the Kd is 10.7 nM.
The molecule B3 displayed a Kd of 108 nM.
On the same count and under the same terms, then B5, with 38.3 nM; and B6, with 0.71 nM.

The target is the same in the next experiment. Put plainly: flow cytometry titration on HEK cells expressing OX40L; Kd (EC50), Prism. As to the method:
FIG. 12. Affinity determination for antibodies that bind OX40L formulated in canine IgGB Def2 and Def7 backbones. The experiment was performed using HEK cells expressing OX40L. Graphs are generated by plotting GeoMean arbitrary units (AU) values against Log₁₀ [concentration]. Kd (EC₅₀) was calculated using Prism.
as §1
Take B9: binding was characterised by a dissociation constant (Kd) of 74.6 nM.
On to B10, for which the Kd was 74.2 nM.
With B11, binding was put at a Kd of 45.4 nM.
Take B12: the Kd is 58.1 nM.
